In the supplement of paper PMC10126150:
± gives the standard deviation of the averaged measurements.

System: ATP
Test: switch fluorescence ratio, 500 uM ATP over buffer (Cy3 cluster intensity, sum of 5 cycles each) (fold (ratio)); higher = stronger signal-on switching upon ATP binding; sequences stand for … in TCGTCGGCAGCGTCAGATGTGTATAAGAGACAGTTTTTTTTTTTTTTTTTTTTTTTTT…TC
Settings: aptamer strand: ATP DNA aptamer (quencher-CACCTGGGGGAGTATTGCGGAGGAAGG + anchor), 100 nM annealed; ATP concentration: 500 uM
Procedure, shortened: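 For every switch-domain sequence, the fluorescence ratio is the mean of per-cluster values, each being summed target-cycle Cy3 intensity over summed buffer-cycle Cy3 intensity. Clusters outside 100-1000 RFU were excluded. On a modified Illumina MiSeq flow-cell, the Cy3-labelled switching-strand clusters were annealed to 100 nM quencher-labelled ATP aptamer, imaged in selection buffer and then after 15 min with 500 uM ATP at 22 °C. Five such cycles were run, with NaOH stripping and re-annealing between them.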
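Further: ATP exposure 15 min at 22 °C before imaging.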

Sequence | switch fluorescence ratio
TTCTTGGGTA | 0.989 ± 0.011
GGGAATGGGC | 0.991 ± 0.066
CTCTGTGGAC | 2.11 ± 0.27
GGGAAGGTAC | 1.047 ± 0.0014
AATCTGCTTG | 1.05 ± 0.024
ATAAGTTTTT | 1 ± 0.023
GCCGGTCTGT | 1.01 ± 0.03
TGTGTTAGTT | 0.991 ± 0.024
TAGAGCGGGG | 0.99 ± 0.02
TTTGGTATTT | 0.984 ± 0.025
AGAAGGAGGT | 0.9874 ± 0.0089
GGGATAAAAT | 1.01 ± 0.017
GGAGGGGGGT | 1.01 ± 0.023
TGTTGTCAGG | 0.99 ± 0.025
GGATAGCCGA | 0.99 ± 0.086
GATTTGGGGT | 1 ± 0.033
ACCTGACTTG | 1.06 ± 0.014
TCTGCTAAAG | 1.01 ± 0.022
GCTAATGGTC | 0.977 ± 0.085
AAAAGACCCG | 1.07 ± 0.044
TCGGGAGGCT | 1 ± 0.028
AGGGGTGGTA | 0.981 ± 0.043
CGTTGTGTAG | 1.02 ± 0.013
TTTTATATTT | 1 ± 0.034
ATTATTGATA | 0.997 ± 0.036

Sequence | switch fluorescence ratio
ATGGAAGGTT | 0.991 ± 0.033
TCCGGGTAGG | 1.036 ± 0.0049
AGGAATGGGA | 1.02 ± 0.02
CGCAGGTTAG | 1.11 ± 0.025
ATCGGCTCTC | 1.03 ± 0.025
TTCAGTTTAG | 1 ± 0.031
AGAGGCCGTT | 0.9965 ± 0.0074
GCGGGGACGC | 0.9982 ± 0.0021
GTGTTAAGTA | 1.0306 ± 0.00088
AATATATGGA | 1 ± 0.023
GTTATCCGGG | 1.01 ± 0.036
TTACTAAGGG | 1.04 ± 0.04
AGGCGGGGGC | 1.03 ± 0.068
GTATTAATTT | 0.9833 ± 0.0046
CGTAGAGGGG | 0.9858 ± 0.0073
ATTTACGGTG | 1 ± 0.022
TGCAGGGCGC | 1.04 ± 0.028
GGTCCTCGGG | 1.03 ± 0.03
GGCGTAAGGG | 1.01 ± 0.019
GGCGTGTGCG | 0.98 ± 0.039
ACCTATGGGA | 1 ± 0.028
TTATGTTGTT | 1 ± 0.018
GCATTTTAGG | 0.967 ± 0.045
CGAGGCAGCA | 1.199 ± 0.009
ATATTTAAAA | 0.985 ± 0.021

Sequence | switch fluorescence ratio
ATGCGCCCTG | 1 ± 0.015
AAAGTTGTCG | 0.969 ± 0.051
GGATTCTGTG | 0.969 ± 0.018
AGCTGTACGG | 1.029 ± 0.0084
TTATAGTCGT | 1 ± 0.015
CATTATGTGA | 0.987 ± 0.051
GCAGAATGGG | 1.08 ± 0.12
CTTCTGGGGC | 1.04 ± 0.055
AGACTGGTTG | 0.993 ± 0.035
AGTTGTGTCG | 0.955 ± 0.02
TTAAGTAAGG | 1.03 ± 0.016
GGTGTATAGT | 0.9908 ± 0.0079
CTGGATGACA | 0.986 ± 0.092
ATGCCCAGGG | 1.61 ± 0.04
TAATTGGACT | 1.01 ± 0.013
CGCGGTGGGC | 1.005 ± 0.0026
GCTCGTGATA | 1.21 ± 0.05
GGCGGATATA | 0.9553 ± 0.0058
AATTATGGGA | 0.986 ± 0.051
TTAGCAGGTG | 2.78 ± 0.1
AATTGGGTTG | 0.957 ± 0.026
GAAAATTGCC | 0.978 ± 0.075
TTCGTGTACA | 1.03 ± 0.026
TTTTGGTCAA | 1.02 ± 0.037
ATTGTTTTCG | 1 ± 0.029

Sequence | switch fluorescence ratio
ACTTTAGCAG | 1.034 ± 0.0063
GGGTCGGCCG | 0.983 ± 0.033
GGGCGTGTTT | 1 ± 0.031
GTCCTTGATA | 1.01 ± 0.024
ATATGAACGA | 1.021 ± 0.0066
ATGTATGTTA | 0.978 ± 0.055
GGCGGCCGGA | 1.002 ± 0.0084
GATACGGACA | 1.42 ± 0.019
TGTTCGGGTT | 0.99 ± 0.015
TTCCGACCGG | 1.28 ± 0.38
TTATCTTAAT | 1.01 ± 0.015
TTTTTGTCGC | 0.992 ± 0.025
CGTTACTTAG | 1.02 ± 0.011
CACCTTTATT | 1.018 ± 0.0096
AGTGTAATGC | 1.15 ± 0.022
GTTTGGGATA | 0.992 ± 0.034
GGTGTCTGT | 0.9738 ± 0.0044
GTGGCAAAGA | 0.993 ± 0.023
GGTTACTGGA | 1.02 ± 0.018
GTGGCTATCG | 0.993 ± 0.025
AAGCATCATA | 0.988 ± 0.021
TAATGTTTTT | 0.985 ± 0.039
GTCCGGGGGT | 1.07 ± 0.11
TTAGAAGGGA | 1.01 ± 0.056
AGTGGGCGGG | 1.003 ± 0.0097
